Consider four molecules from article PMC10974264, “The Evolution and Application of a Novel DNA Aptamer Targeting Bone Morphogenetic Protein 2 for Bone Regeneration”.

Series [1] deals with T1, rhBMP-2 (His-tagged, refolded, E. coli-expressed) (human, UniProt P12643 283-396).
T1 sequence: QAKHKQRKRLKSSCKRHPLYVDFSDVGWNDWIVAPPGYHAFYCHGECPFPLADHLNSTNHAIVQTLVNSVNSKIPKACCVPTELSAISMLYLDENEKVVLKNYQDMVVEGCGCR
Put plainly: ELONA; immobilized rhBMP-2, 100 ng/well; EMSA: 20 mM HEPES pH 7.4, 150 mM NaCl, 2 mM MgCl2, 2 mM CaCl2, 2 mM KCl, 37 C 1 h, 12% native PAGE at 4 C; ELONA: His-rhBMP-2 on HisSorb plate, biotinylated DNA 1 h at 37 C, PBST washes. The following applies: protein: recombinant, tags: His tag (pET-15b NdeI/BamHI), chain copies: 2, label: biotin (ELONA), none in EMSA. In general terms: A gel shift assay detects complexes by their altered migration in electrophoresis.

Series [2] has as its target T1, rhBMP-2 (His-tagged, refolded, E. …). Put plainly: ELISA-like; fiber of 500 nM BA1 and 10% type I collagen (0.3 mg/mL); EMSA: 20 mM HEPES pH 7.4, 150 mM NaCl, 2 mM MgCl2, 2 mM CaCl2, 2 mM KCl, 37 C 1 h, 12% native PAGE at 4 C; ELONA: His-rhBMP-2 on HisSorb plate, biotinylated DNA 1 h at 37 C, PBST washes. Conditions: protein: recombinant; tags: His tag (pET-15b NdeI/BamHI); chain copies: 2; label: biotin.

One may read the Kd as the concentration at which binding is half-saturated.

B1: BA2 (ssDNA)
DNA: CGTACGGTCGACGCTAGCAAAAAAAAATCTAAAAACAAGAAAAGAAAAACAAACACGTGGAGCTCGGATCC
For B1, the dissociation constant (Kd) in series [1] came out at 20.3 ± 4.73 nM.

B2: BNA2 (ssDNA)
DNA: CGTACGGTCGACGCTAGCATCAGCTCTCTGGGCTGAGTGGGTGGTGTGGCACGCACGTGGAGCTCGGATCC
In the case of B2, in series [1], the Kd came out at 22.3 ± 1.97 nM.

B3: BA1 (ssDNA)
DNA: CGTACGGTCGACGCTAGCAAAACAAAAAAAAATAAAAAAAAAAAGACTAAAGACACGTGGAGCTCGGATCC
B3: the Kd in series [1] (single strand, predicted hairpin-like) was 6.95 ± 0.53 nM.

B4: BA1 in collagen fiber (ssDNA)
DNA: B3 DNA
In the case of B4, the Kd in series [2] is about 3.5 nM.
